Each block holds one molecule with its values, some of them ahead of it.
What was measured:
DANCE-specific protease [1] = assay: Inhibition of DANCE cleavage by protease inhibitors in transfected 293T cells; format: cell-based; details: 293T cells expressing human DANCE, serum-free medium with inhibitor, 48 hours; Western blotting with anti-FLAG M2
Description: 293T cells were used in expression experiments. Transfection was performed using the Lipofect AMINE Plus reagent as directed in the product instructions. 24 hours after transfection, the medium was exchanged with serum-free medium, and cultivation was continued for 48 hours; the resulting supernatant or cell lysate was used for Western blotting and in vitro binding assay.
A human DANCE cDNA with FLAG tag and 6×His tag added to the carboxyl terminus thereof was transfected to 293T cells; the cells were cultured using a serum-free medium comprising a cysteine protease inhibitor (E64) or serine protease inhibitor (aprotinin) for 48 hours; a recombinant protein was precipitated from the culture supernatant using Ni-NTA agarose and was developed by SDS-PAGE and Western blotting was performed using anti-FLAG M2 antibody.

LTBP2 = target: T1, LTBP2 (Bos taurus, UniProt Q28019); assay: Precipitation of DANCE-binding proteins from smooth muscle cell culture supernatant (LTBP2); details: 50 μg recombinant human DANCE mixed with 35S-labeled bovine arterial smooth muscle cell supernatant, anti-FLAG precipitation
T1 construct: host or cells: bovine arterial smooth muscle cells (culture supernatant); bait purified from stably transfected 293T cells
T1 sequence (Q28019 36-1842, one chain of several): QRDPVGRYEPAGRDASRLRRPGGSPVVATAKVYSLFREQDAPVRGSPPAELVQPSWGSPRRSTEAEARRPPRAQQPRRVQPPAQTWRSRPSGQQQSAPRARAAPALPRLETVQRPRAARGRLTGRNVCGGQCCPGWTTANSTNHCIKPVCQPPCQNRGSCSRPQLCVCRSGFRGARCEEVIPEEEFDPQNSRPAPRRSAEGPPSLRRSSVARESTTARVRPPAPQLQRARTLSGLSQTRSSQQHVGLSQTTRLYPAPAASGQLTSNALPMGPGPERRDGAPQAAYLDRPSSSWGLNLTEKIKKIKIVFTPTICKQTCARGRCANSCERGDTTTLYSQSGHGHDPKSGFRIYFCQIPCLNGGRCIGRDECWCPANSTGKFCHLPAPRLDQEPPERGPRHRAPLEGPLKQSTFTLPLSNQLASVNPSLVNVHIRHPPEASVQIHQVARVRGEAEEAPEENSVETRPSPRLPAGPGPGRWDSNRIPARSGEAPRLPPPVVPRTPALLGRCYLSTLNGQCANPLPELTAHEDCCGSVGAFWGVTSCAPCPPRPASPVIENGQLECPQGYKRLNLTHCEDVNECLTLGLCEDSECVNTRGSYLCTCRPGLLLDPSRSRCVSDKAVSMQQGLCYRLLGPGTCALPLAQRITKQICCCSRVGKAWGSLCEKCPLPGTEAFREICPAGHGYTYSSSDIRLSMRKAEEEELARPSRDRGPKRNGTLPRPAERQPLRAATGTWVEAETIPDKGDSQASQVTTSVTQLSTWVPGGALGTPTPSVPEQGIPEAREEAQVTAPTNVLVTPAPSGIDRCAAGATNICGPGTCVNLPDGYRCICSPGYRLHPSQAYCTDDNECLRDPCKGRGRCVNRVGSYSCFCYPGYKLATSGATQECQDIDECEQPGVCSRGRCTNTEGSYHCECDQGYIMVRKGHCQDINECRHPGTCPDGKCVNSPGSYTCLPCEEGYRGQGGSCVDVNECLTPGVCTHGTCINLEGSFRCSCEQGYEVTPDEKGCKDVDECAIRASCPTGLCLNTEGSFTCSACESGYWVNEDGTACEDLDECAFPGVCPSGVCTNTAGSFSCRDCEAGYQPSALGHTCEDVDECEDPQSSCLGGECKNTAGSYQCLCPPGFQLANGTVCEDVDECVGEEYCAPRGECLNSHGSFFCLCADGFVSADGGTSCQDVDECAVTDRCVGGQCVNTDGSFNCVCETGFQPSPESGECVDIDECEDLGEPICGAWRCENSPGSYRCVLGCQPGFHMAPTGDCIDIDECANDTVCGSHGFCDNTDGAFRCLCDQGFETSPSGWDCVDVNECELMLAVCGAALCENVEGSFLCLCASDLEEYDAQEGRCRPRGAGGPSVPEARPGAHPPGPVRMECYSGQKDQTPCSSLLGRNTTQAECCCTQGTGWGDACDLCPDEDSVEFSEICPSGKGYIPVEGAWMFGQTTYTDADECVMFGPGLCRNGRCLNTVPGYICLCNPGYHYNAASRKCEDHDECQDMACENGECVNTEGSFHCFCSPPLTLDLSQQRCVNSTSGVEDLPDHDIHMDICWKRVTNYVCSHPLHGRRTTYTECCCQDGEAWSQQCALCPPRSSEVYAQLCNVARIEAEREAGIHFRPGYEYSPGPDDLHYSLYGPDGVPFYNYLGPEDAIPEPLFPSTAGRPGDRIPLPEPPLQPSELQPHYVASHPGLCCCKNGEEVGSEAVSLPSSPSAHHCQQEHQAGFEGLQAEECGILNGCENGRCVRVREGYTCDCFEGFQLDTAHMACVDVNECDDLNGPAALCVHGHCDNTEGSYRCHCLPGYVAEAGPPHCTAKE
Description: (§1) After bovine arterial smooth muscle cells seeded on a 9-cm plate were labeled with 35S-Met and Cys for 24 hours, the culture supernatant and 50 μg of recombinant human DANCE (with C-terminal FLAG and 6×His) were mixed and precipitated with anti-FLAG agarose (Sigma), and the resulting precipitate was developed by SDS-PAGE and autoradiography was performed. The same culture supernatant was immunoprecipitated with commercially available antibodies against elastic fiber constituent protein (elastin, fibrillin 1, fibrillin 2 and LTBP2), and developed with the same SDS-PAGE gel, and autoradiography was performed.

human skin fibroblasts = assay: Formation of elastic fibers in cultured human skin fibroblasts; format: cell-based
Description: Human fibroblasts were kindly supplied by the Department of Plastic Surgery, Kyoto University Hospital. A cover glass was placed on the bottom of a 24-well plate, on which human fibroblasts were seeded at 7.5×10^4 cells per well, and cultured in a DMEM medium supplemented with 10% FBS at 37° C. in the presence of 5% CO2. After the plate washed with PBS on Day 3, the medium was exchanged with a DMEM/F12 medium not supplemented with FBS, and purified DANCE protein, cleaved form of DANCE protein 4 μg/ml, or FBS was added. Cultivation was continued at 37° C. in the presence of 5% CO2, and the cells were fixed and immunologically stained on Day 14.
On Day 14 of cultivation, the cells were washed with 1 ml of PBS three times, after which they were fixed with 100% methanol at −20° C. for 30 minutes. After washing with PBS, the cells were subjected to blocking with a PBS containing 2% BSA at room temperature for 30 minutes, after which the cells were incubated with the polyclonal anti-elastin antibody (dilution rate 1/100) and the monoclonal anti-FLAG antibody (dilution rate 1/100) at room temperature for at least 1 hour. The cells were washed with PBS and further incubated with the anti-rabbit Alexa Fluor 488 antibody (dilution rate 1/100) and the anti-mouse Alexa Fluor 546 antibody (dilution rate 1/100) at room temperature for 1 hour. After washing with PBS, the cells were fixed with 4% para-formaldehyde at room temperature for 10 minutes and again washed with PBS, after which the sample was mounted onto a glass slide using a DAPI-containing Vectashield. Examination was performed using a confocal microscope.
Human skin fibroblasts were seeded to reach confluency; the medium was replaced with serum-free medium or a medium containing 10% fetal calf serum; the cells were cultured for 2 weeks; the formation of elastic fibers was analyzed by immunostaining with anti-elastin antibody.

human lysyl oxidase = target: T2, human lysyl oxidase (Homo sapiens, UniProt P28300); assay: In vitro binding assay, DANCE with lysyl oxidase; details: anti-FLAG precipitation, anti-Myc detection
T2 construct: The 22nd amino acid to the 417th amino acid of the polypeptide (417 amino acids) encoded by human lysyl oxidase; expressed in transfected cells
T2 sequence (P28300 22-417): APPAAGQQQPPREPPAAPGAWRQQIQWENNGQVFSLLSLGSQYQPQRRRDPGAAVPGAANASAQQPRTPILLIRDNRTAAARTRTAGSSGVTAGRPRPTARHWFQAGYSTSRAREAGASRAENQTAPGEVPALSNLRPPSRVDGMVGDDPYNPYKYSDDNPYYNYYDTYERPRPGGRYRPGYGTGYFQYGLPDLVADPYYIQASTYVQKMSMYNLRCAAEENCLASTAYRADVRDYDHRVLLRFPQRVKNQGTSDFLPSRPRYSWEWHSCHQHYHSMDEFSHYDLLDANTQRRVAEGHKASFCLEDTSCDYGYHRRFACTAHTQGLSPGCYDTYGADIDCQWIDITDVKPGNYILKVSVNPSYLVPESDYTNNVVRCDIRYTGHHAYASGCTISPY
T2 sequence (Q9UBX5 24-448 partner): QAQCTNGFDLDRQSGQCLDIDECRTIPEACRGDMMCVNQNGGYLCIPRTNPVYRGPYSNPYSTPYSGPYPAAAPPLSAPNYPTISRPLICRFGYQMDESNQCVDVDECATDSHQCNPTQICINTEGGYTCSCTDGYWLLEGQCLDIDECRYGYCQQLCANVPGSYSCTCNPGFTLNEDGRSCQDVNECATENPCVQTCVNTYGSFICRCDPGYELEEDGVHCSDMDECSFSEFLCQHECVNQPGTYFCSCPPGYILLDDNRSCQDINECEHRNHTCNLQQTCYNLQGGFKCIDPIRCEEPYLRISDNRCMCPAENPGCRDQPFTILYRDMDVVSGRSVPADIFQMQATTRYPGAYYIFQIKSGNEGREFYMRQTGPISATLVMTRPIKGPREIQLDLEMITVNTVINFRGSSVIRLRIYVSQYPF
Description: The 22nd amino acid to the 417th amino acid of the polypeptide (417 amino acids) encoded by human lysyl oxidase (GenBank accession number: AF039291.1) cDNA was amplified by a PCR method and incorporated in the XbaI/NotI site of pEF6/ssMyc.
A human DANCE construct with FLAG tag (FIG. 8), a human DANCE construct with Myc tag, and a human LTBP2 construct were separately transfected to 293T cells. After cultivation in serum-free medium for 48 hours, each culture supernatant and cell extract were mixed, and this was used as the protein solution. A protein solution from the DANCE construct with FLAG tag and a protein solution from DANCE or LTBP2 with Myc tag were mixed on ice for 1 hour, and precipitated with anti-FLAG antibody, and the resulting precipitate was developed by SDS-PAGE, and detected using anti-Myc antibody or anti-FLAG antibody.
The assay was performed in the same manner as Example 6 except that a precipitate obtained using anti-FLAG antibody was developed by SDS-PAGE and detected using anti-Myc antibody.

DANCE = target: T3, DANCE (Bos taurus, UniProt Q5EA62); assay: Precipitation of DANCE-binding proteins from smooth muscle cell culture supernatant (homo-complex); details: 50 μg recombinant human DANCE mixed with 35S-labeled bovine arterial smooth muscle cell supernatant, anti-FLAG precipitation
T3 construct: After bovine arterial smooth muscle cells seeded on a 9-cm plate were labeled with 35S-Met and Cys for 24 hours; host or cells: bovine arterial smooth muscle cells (culture supernatant); bait purified from stably transfected 293T cells
T3 sequence (Q5EA62 24-448): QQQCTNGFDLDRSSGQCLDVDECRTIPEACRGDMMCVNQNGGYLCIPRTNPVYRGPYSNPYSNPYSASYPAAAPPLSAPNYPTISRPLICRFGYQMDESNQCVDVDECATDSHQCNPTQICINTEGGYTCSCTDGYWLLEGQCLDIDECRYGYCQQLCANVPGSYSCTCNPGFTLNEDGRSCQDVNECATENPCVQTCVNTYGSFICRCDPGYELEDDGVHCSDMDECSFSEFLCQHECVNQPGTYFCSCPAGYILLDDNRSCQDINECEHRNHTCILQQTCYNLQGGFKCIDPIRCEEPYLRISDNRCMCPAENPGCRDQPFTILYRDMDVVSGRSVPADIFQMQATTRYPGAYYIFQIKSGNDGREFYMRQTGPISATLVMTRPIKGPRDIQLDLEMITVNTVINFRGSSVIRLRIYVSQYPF
T3 sequence (Q9UBX5 24-448 partner): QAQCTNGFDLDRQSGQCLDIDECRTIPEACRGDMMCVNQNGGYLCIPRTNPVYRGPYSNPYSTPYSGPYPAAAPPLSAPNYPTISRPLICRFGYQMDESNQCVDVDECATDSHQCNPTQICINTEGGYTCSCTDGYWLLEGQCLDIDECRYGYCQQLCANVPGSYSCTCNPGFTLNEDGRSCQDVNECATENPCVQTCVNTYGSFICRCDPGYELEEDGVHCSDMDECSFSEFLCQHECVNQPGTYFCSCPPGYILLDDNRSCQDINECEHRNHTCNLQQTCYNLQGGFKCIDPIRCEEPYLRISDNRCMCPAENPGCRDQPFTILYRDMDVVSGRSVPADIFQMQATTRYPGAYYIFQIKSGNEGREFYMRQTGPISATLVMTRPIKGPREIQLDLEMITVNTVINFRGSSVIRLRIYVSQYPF
Description: as §1

[2] = test system: vascular endothelial cells; assay: Vascular endothelial cell adhesion assay; format: cell-based; details: purified recombinant protein used for coating
From the text: Full-length DANCE promotes the adhesion and extension of vascular endothelial cells via cell surface integrin. The present inventor has reported to date that full-length DANCE can serve as a ligand for the integrins αvβ3, αvβ5, and α9β1. Since the domain serving as the ligand is considered to be around the RGD motif of the amino-terminal domain of DANCE, each recombinant protein of a DANCE mutant wherein RGD was replaced with RGE for one-amino-acid substitution (RGE DANCE), and amino-terminal cleaved form of DANCE (ΔND DANCE) were purified, and these, along with full-length DANCE, were subjected to vascular endothelial cell adhesion assay (FIG. 13).

DANCE-specific protease [3] = assay: Cleavage of mutated versus normal form of DANCE expressed in 293T cells; format: cell-based, human; details: Arg77 substituted with Ala, serum-free medium 48 hours, Western blotting with anti-FLAG M2
From the text: The 77th amino acid of human DANCE, arginine, was substituted with alanine using the Quick Change in vitro mutagenesis kit (Stratagene). The other procedures were the same as pEF6-hDANCE-FLAG.
An expression vector for the mutated form of DANCE resulting from the substitution of the 77th arginine of DANCE with alanine (with C-terminal FLAG and 6×His tag) (FIG. 7), and an expression vector for normal form of DANCE (with C-terminal FLAG and 6×His tag) were transfected to 293T cells; the cells were cultured using serum-free medium for 48 hours; a recombinant protein was precipitated from the culture supernatant using Ni-NTA agarose, and developed by SDS-PAGE, and Western blotting was performed using anti-FLAG M2 antibody.

Molecule: CC(C)C[C@H](NC(=O)[C@H]1O[C@@H]1C(=O)O)C(=O)NCCCCN=C(N)N [E64]
inhibition of the cleavage of DANCE (DANCE-specific protease [1]): not inhibited

Molecule: aprotinin
inhibition of the cleavage of DANCE (DANCE-specific protease [1]): inhibited

binding to LTBP2 (LTBP2): binds to LTBP2 | binding to lysyl oxidase (human lysyl oxidase): suggested to bind to lysyl oxidase | formation of a homo-complex (DANCE): forms a homo-complex
B1: DANCE: secretory protein (developmental arteries and neural crest EGF-like; fibulin-5), SEQ ID NO:2 or 4; recombinant human form with C-terminal FLAG and 6×His (protein, listed as Homo sapiens)
chain: MPGIKRILTVTILALCLPSPGNAQAQCTNGFDLDRQSGQCLDIDECRTIPEACRGDMMCVNQNGGYLCIPRTNPVYRGPYSNPYSTPYSGPYPAAAPPLSAPNYPTISRPLICRFGYQMDESNQCVDVDECATDSHQCNPTQICINTEGGYTCSCTDGYWLLEGQCLDIDECRYGYCQQLCANVPGSYSCTCNPGFTLNEDGRSCQDVNECATENPCVQTCVNTYGSFICRCDPGYELEEDGVHCSDMDECSFSEFLCQHECVNQPGTYFCSCPPGYILLDDNRSCQDINECEHRNHTCNLQQTCYNLQGGFKCIDPIRCEEPYLRISDNRCMCPAENPGCRDQPFTILYRDMDVVSGRSVPADIFQMQATTRYPGAYYIFQIKSGNEGREFYMRQTGPISATLVMTRPIKGPREIQLDLEMITVNTVINFRGSSVIRLRIYVSQYPF
modifications: C-terminal FLAG and 6xHis tags
notes: secretory protein (developmental arteries and neural crest EGF-like); recombinant human form with C-terminal FLAG and 6×His
formation of elastic fibers (anti-elastin immunostaining) (human skin fibroblasts; protein added to serum-free medium at 4 μg/ml, cultured for 2 weeks): elastic fibers were formed at a higher level than with the serum-containing medium | localization of the added recombinant protein (anti-FLAG antibody) (human skin fibroblasts; serum-free medium, 4 μg/ml): co-localized with the elastic fibers formed | cell adhesion activity [2]: cell adhesion was promoted with dependence on the concentration of the protein used for coating

B2: mutated form of DANCE: mutated form of DANCE resulting from the substitution of the 77th arginine of DANCE with alanine (protein, UniProt Q9UBX5 24-448, looked up, variant R77A)
Fibulin-5: QAQCTNGFDLDRQSGQCLDIDECRTIPEACRGDMMCVNQNGGYLCIPRTNPVYAGPYSNPYSTPYSGPYPAAAPPLSAPNYPTISRPLICRFGYQMDESNQCVDVDECATDSHQCNPTQICINTEGGYTCSCTDGYWLLEGQCLDIDECRYGYCQQLCANVPGSYSCTCNPGFTLNEDGRSCQDVNECATENPCVQTCVNTYGSFICRCDPGYELEEDGVHCSDMDECSFSEFLCQHECVNQPGTYFCSCPPGYILLDDNRSCQDINECEHRNHTCNLQQTCYNLQGGFKCIDPIRCEEPYLRISDNRCMCPAENPGCRDQPFTILYRDMDVVSGRSVPADIFQMQATTRYPGAYYIFQIKSGNEGREFYMRQTGPISATLVMTRPIKGPREIQLDLEMITVNTVINFRGSSVIRLRIYVSQYPF
resistance to cleavage with a protease (DANCE-specific protease [3]): exhibit resistance to cleavage with a protease

B3: RGE DANCE: DANCE mutant wherein RGD was replaced with RGE for one-amino-acid substitution (protein)
chain: QAQCTNGFDLDRQSGQCLDIDECRTIPEACRGEMMCVNQNGGYLCIPRTNPVYRGPYSNPYSTPYSGPYPAAAPPLSAPNYPTISRPLICRFGYQMDESNQCVDVDECATDSHQCNPTQICINTEGGYTCSCTDGYWLLEGQCLDIDECRYGYCQQLCANVPGSYSCTCNPGFTLNEDGRSCQDVNECATENPCVQTCVNTYGSFICRCDPGYELEEDGVHCSDMDECSFSEFLCQHECVNQPGTYFCSCPPGYILLDDNRSCQDINECEHRNHTCNLQQTCYNLQGGFKCIDPIRCEEPYLRISDNRCMCPAENPGCRDQPFTILYRDMDVVSGRSVPADIFQMQATTRYPGAYYIFQIKSGNEGREFYMRQTGPISATLVMTRPIKGPREIQLDLEMITVNTVINFRGSSVIRLRIYVSQYPF
modifications: left off: small tags and cut ends
notes: DANCE mutant wherein RGD was replaced with RGE for one-amino-acid substitution
cell adhesion activity [2]: almost no cell adhesion activity
